The term Kd denotes the concentration at which binding is half-saturated. Lower therefore signals a tighter complex.

Experiment [1] deals with T1, human RANKL (human, UniProt O14788 140-317, limits assumed).
T1 construct: also called hRANKL
T1 sequence (looked up): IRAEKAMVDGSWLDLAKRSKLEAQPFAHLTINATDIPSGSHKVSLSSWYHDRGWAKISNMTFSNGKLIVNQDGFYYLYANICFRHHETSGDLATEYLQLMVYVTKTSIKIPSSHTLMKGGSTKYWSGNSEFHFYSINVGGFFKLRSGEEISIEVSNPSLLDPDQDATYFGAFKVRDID
The experiment can be described thus: SPR (ProteOn XPR36), cytokine immobilised by amine coupling. How it is done:
Absence of binding to OX40L and IL-13 related human cytokines was assessed via SPR (Proteon XPR36). As IL-13 related cytokine, IL-4 was assessed. As OX40L related targets, human TRAIL, CD30L, CD40L and RANKL were assessed.
To this end, the cytokines were immobilized on a ProteOn GLC sensor chip at 25 μg/mL for 600 s using amine coupling, with 80 seconds injection of EDC/NHS for activation and a 150-seconds injection of 1 M Ethanolamine HCl for deactivation (ProteOn Amine Coupling Kit. cat. 176-2410). Flow rate during activation and deactivation was set to 30 μl/min, and during ligand injection to 25 μl/min. The pH of the 10 mM acetate immobilization buffer was 6.0 for all cytokines, except for RANKL where the pH was 5.0.
Next, 1 μM of F027100187 was injected for 2 minutes and allowed to dissociate for 600 s at a flow rate of 45 μL/min. As running buffer PBS (pH7.4)+0.005% Tween 20 was used. As positive controls, 100 nM α-hIL-4, α-hTRAIL, α-hCD30L, α-hCD40L Ab and α-hRANKL VHH (Nanobody®, Nb) were injected. Interaction between F027100187 and the positive controls with the immobilized targets was measured by detection of increases in refractory index which occurs as a result of mass changes on the chip upon binding.

Experiment [2] concerns the target T2, cyno serum albumin (cynomolgus monkey).
T2 construct: also called cyno SA; cynomolgus monkey serum albumin
The experiment can be described thus: Gyrolab in-solution affinity, 2 h incubation; 95% CI 9.0-12.3 nM. How it is done: (§1) Under receptor-controlled measurements a serial dilution of OX40L (ranging from 1.3 μM-0.031 μM), IL-13 (ranging from 0.1 μM-0.25 fM), or serum albumin (ranging from 100 μM-3.2 μM) and a fixed amount of ISVD construct F027100187 (5 nM in case of OX40L, […] in case of IL-13 and 30 nM in case of HSA and cyno SA) were mixed to allow interaction and incubated for either 24 or 48 hours (in case of OX40L and IL-13) or 2 hours (in case of serum albumin) to reach equilibrium.
(§2) Biotinylated human OX40L/IL-13/serum albumin was captured in the microstructures of a Gyrolab Bioaffy 1000 CD, which contains columns of beads and was used as a molecular probe to capture free F027100187 from the equilibrated solution. The mixture of OX40L/IL13/serum albumin and F027100187 (containing free OX40UIL-13/serum albumin, free F027100187 and OX40L/IL13/serum albumin—F027100187 complexes) was allowed to flow through the beads, and a small percentage of free F027100187 was captured, which is proportional to the free ISVD construct concentration. A fluorescently labeled anti-ISVD antibody, ABH0086-Alexa647, was then injected to label any captured F027100187 and after rinsing away excess of fluorescent probe, the change in fluorescence was determined. Fitting of the dilution series was done using Gyrolab Analysis software, where KD- and receptor-controlled curves were analyzed to determine the KD value.

The target of experiment [3] is T3, rhesus IL-13 (rhesus monkey, UniProt Q864V6 19-132, limits assumed).
T3 construct: also called rhesus monkey IL-13
The experiment can be described thus: Gyrolab in-solution affinity, 48 h incubation; 95% CI 6.8-39.6 pM. How it is done:
as §1, §2

In experiment [4] the target is T3, rhesus IL-13. The experiment can be described thus: Gyrolab in-solution affinity, 48 h incubation; 95% CI 6.3-49.5 pM. How it is done: as §1, §2
Experiment [5] concerns the target T4, cyno IL-13 (cynomolgus monkey, UniProt Q0PW92 21-132).
T4 construct: also called cynomolgus monkey IL-13
The experiment can be described thus: Gyrolab in-solution affinity, 48 h incubation; 95% CI 5.8-7.5 pM. How it is done: as §1, §2

Experiment [6] concerns the target T5, human OX40L (human, UniProt P23510 51-183).
T5 sequence (looked up): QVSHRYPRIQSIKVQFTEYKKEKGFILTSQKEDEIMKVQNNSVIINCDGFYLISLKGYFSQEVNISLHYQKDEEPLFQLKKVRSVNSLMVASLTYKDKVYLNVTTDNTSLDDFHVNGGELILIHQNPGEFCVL
The experiment can be described thus: cell-based or functional assay.

Experiment [7] addresses T5, human OX40L. The experiment can be described thus: Gyrolab in-solution affinity, 48 h incubation; 95% CI 98-120 pM. How it is done:
as §1, §2

Experiment [8] deals with T6, human serum albumin (human, UniProt P02768 25-609).
T6 construct: also called HSA; HAS
The experiment can be described thus: Gyrolab in-solution affinity, 2 h incubation; 95% CI 5.5-7.6 nM. How it is done:
as §1, §2

Experiment [9] deals with T7, human IL-13 (human, UniProt P35225 35-146, limits assumed). The experiment can be described thus: cell-based or functional assay.
The target of experiment [10] is T2, cyno serum albumin. The experiment can be described thus: Gyrolab in-solution affinity, 2 h incubation; 95% CI 8.3-10.9 nM. How it is done:
as §1, §2

For experiment [11], the target named is T7, human IL-13. The experiment can be described thus: Gyrolab in-solution affinity, 48 h incubation; 95% CI 3.4-7.1 pM. How it is done:
as §1, §2

In experiment [12] the target is T3, rhesus IL-13. The experiment can be described thus: Gyrolab in-solution affinity, 48 h incubation; 95% CI 9.0-49.5 pM. How it is done:
as §1, §2

Experiment [13] addresses T7, human IL-13. The experiment can be described thus: Gyrolab in-solution affinity, 48 h incubation; 95% CI 6.4-9.1 pM. How it is done:
as §1, §2

The target of experiment [14] is T8, mouse serum albumin (mouse, UniProt P07724 25-608).
T8 construct: also called mouse SA
The experiment can be described thus: Gyrolab in-solution affinity, 2 h incubation; 95% CI 101-117 nM.

In experiment [15] the target is T4, cyno IL-13. The experiment can be described thus: Gyrolab in-solution affinity, 48 h incubation; 95% CI 7.0-9.3 pM. How it is done:
as §1, §2

T3 sequence (Q864V6 19-132 limits assumed): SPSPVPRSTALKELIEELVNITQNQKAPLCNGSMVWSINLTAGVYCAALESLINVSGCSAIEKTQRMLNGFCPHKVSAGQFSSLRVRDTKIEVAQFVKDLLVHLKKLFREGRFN
T7 sequence (P35225 35-146 limits assumed): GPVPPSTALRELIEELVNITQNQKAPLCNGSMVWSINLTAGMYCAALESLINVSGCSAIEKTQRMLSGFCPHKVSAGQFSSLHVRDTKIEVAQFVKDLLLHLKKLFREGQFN
T4 sequence (Q0PW92 entry or part of it): as the sequence (P35225 35-146 limits assumed) above, with G1S, R10K, M42V, S67N, H83R, L100V counted along it
T2 sequence (A2V9Z4 25-608): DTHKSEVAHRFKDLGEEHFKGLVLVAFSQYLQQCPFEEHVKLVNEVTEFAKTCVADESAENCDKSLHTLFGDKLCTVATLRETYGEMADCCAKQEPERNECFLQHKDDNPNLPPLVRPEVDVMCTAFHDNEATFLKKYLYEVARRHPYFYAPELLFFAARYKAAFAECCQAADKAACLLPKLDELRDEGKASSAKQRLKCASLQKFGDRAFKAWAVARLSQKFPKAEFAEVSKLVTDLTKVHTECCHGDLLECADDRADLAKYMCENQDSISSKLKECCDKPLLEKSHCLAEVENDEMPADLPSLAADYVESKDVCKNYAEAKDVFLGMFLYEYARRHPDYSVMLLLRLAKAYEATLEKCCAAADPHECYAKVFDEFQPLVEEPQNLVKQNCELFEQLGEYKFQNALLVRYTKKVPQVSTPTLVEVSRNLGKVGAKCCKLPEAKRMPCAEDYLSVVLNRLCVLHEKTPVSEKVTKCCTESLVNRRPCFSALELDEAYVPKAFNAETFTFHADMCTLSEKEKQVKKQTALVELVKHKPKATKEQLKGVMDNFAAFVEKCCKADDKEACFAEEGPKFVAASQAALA
T6 sequence (P02768 25-609 limits assumed): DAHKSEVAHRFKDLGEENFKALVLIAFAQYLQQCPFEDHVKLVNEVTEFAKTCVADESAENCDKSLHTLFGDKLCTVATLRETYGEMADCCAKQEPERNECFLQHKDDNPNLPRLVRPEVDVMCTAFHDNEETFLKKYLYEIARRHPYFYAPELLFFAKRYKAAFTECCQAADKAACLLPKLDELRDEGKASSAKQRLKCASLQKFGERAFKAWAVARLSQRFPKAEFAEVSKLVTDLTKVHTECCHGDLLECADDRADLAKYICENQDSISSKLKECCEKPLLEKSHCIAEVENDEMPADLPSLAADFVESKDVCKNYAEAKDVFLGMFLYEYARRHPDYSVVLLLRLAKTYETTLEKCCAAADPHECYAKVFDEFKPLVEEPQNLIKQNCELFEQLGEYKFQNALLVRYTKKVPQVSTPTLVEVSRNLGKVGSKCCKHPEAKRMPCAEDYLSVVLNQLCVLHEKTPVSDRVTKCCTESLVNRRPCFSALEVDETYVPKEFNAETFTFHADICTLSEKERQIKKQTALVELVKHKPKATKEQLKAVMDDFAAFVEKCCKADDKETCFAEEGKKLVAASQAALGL

B1: ISVD construct F027100187 (other)
chain: DVQLVESGGGVVQPGGSLRLSCAASRSIGRYDRMGWYRHRPGEPRELVATITGGSSINYGDSVKGRFTISIDNSKNTVYLQMNSLRPEDTALYYCNFNKYQISRDTWGQGTLVTVSSGGGGSGGGSEVQLVESGGGVVQPGGSLRLSCAASGRTFSSYRMGWFRQAPGKEREFVAALSGDGYSTYTANSVKGRFTISRDNSKNTVYLQMNSLRPEDTALYYCAAKLQYVSGWSYDYPYWGQGTLVTVSSGGGGSGGGSEVQLVESGGGVVQPGGSLRLSCAASGFTFRSFGMSWVRQAPGKGPEWVSSISGSGSDTLYADSVKGRFTISRDNSKNTLYLQMNSLRPEDTALYYCTIGGSLSRSSQGTLVTVSSGGGGSGGGSEVQLVESGGGVVQPGGSLRLSCAASGFTFNNYAMKWVRQAPGKGLEWVSSITTGGGSTDYADSVKGRFTISRDNSKNTLYLQMNSLRPEDTALYYCANVPFGYYSEHFSGLSFDYRGQGTLVTVSSA
notes: Tetravalent, trispecific single-chain construct of four VHH (ISVD) domains: one against OX40L, two against IL-13, one against serum albumin; also called F0271000187; F27100187
In the case of B1, the binding result in experiment [1] is given as “no binding (tested: 1 µM)”. For the same molecule, the Kd in experiment [2] came to 10.6 nM; in [3] it was 0.0232 nM; in experiment [4], 0.0141 nM; in [5] it was 0.0067 nM; in [7], 0.109 nM; in experiment [8], 6.6 nM. Also, the Kd in [10] is 9.6 nM; in experiment [11], 0.0053 nM; in experiment [12], 0.0293 nM; in experiment [13], 0.0078 nM; in experiment [14], 109 nM; in [15], 0.0082 nM. Moreover, the “IL-5 IC50 (nM), triculture assay” value in [6] was 1 nM. Further, the “CCL26 IC50 (pM), triculture assay” value in [9] turned out to be 40.7 pM.

The record behind these values is US20220153854A1 (Ablynx, published 2022).
